We go through 38 sequences from the supplement of paper PMC7877785.

The nature of this data set: self-splicing fitness, log relative to wild type (ln ratio); higher = more splicing; Tetrahymena group I intron in knt gene, E. coli kanamycin selection, DiMSum; sequences stand for … in CUCUCU…GGAGGGAAAAGUUAUCAGGCAUGCACCUGGUAGCUAGUCUUUAAACCAAUAGAUUGCAUCGGUUUAAAAGGCAAGACCGUCAAAUUGCGGGAAAGGGGUCAACAGCCGUUCAGUACCAAGUCUCAGGGGAAACUUUGAGAUGGCCUUGCAAAGGGUAUGGUAAUAAGCUGACGGACAUGGUCCUAACCACGCAGCCAAGUCCUAAGUCAACAGAUCUUCUGUUGAUAUGGAUGCAGUUCACAGACUAAAUGUCGGUCGGGGAAGAUGUAUUCUUCUCAUAAGAUAUAGUCGGACCUCUCCUUAAUGGGAGCUAGCGGAUGAAGUGAUGCAACACUGGAGCCGCUGGGAACUAAUUUGUAUGCGAAAGUAUAUUGAUUAGUUUUGGAGUACUCGUGGUCG
The method, boiled down:
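Library with all eight P1ex-region intron nucleotides randomised, intron inside the knt kanamycin-resistance gene on pET-22b(+), in E. coli BL21(DE3). Cells grew overnight at 37°C or 30°C on LB agar with or without 25 μg/mL kanamycin (plus 100 μg/mL carbenicillin, 50 μM IPTG, 0.2% rhamnose), in six replicate transformations. Pooled colonies were amplicon-sequenced on Illumina HiSeq 2500. DiMSum fitness is the error-weighted combination of wild-type-normalised replicate fold changes, kanamycin versus none.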

± gives the uncertainty stated by the source.

On to CGCAAGCAAUAUUACGACGG, for which the “self-splicing fitness (ln)” value by setting is: (30 °C) 0.00768 ± 0.061; (37 °C) 0.452 ± 0.08. In the same order, the values of CGCAAGCAAUAUUACGAGCU are -0.541 ± 0.063 and -0.633 ± 0.078. As to CGCAAGCAAUAUUACGAGUG, the “self-splicing fitness (ln)” value by setting is: (30 °C) -1.99 ± 0.057; (37 °C) -1.72 ± 0.084. In the same order, the values of CGCAAGCAAUAUUACGAGUU are -3.26 ± 0.13 and -1.45 ± 0.1. For CGCAAGCAAUAUUACGAUUC the same measures were -3.18 ± 0.18 and -2.17 ± 0.15.

Take CGCAAGCAAUAUUACGCAGA: the “self-splicing fitness (ln)” value is -2.26 ± 0.15 (30 °C) and -1.78 ± 0.16 (37 °C). For CGCAAGCAAUAUUACGCAGG the same measures were -2.74 ± 0.12 and -1.01 ± 0.12. For CGCAAGCAAUAUUACGCCGA the same measures were -2.85 ± 0.26 and -2 ± 0.18. In the case of CGCAAGCAAUAUUACGCCGG, the “self-splicing fitness (ln)” value was -0.626 ± 0.12 (30 °C) and -0.476 ± 0.17 (37 °C). As for CGCAAGCAAUAUUACGCGCG, the “self-splicing fitness (ln)” value is, setting by setting: (30 °C) -3.11 ± 0.12; (37 °C) -2.51 ± 0.16. Regarding CGCAAGCAAUAUUACGGACC, the “self-splicing fitness (ln)” value runs as follows: (30 °C) -1.72 ± 0.1; (37 °C) -0.3 ± 0.14. Consider CGCAAGCAAUAUUACGGCUC, for which the “self-splicing fitness (ln)” value was -1.94 ± 0.14 (30 °C) and -1.43 ± 0.15 (37 °C). In the same order, the values of CGCAAGCAAUAUUACGGUUC are -4.01 ± 0.23 and -2.6 ± 0.16. Consider CGCAAGCAAUAUUACGGUUU, for which the “self-splicing fitness (ln)” value was -2.95 ± 0.17 (30 °C) and -2.53 ± 0.18 (37 °C). With CGCAAGCAAUAUUACGUCGG, the “self-splicing fitness (ln)” value by setting is: (30 °C) -0.371 ± 0.061; (37 °C) -0.192 ± 0.089. With CGCAAGCAAUAUUACGUGCC, the “self-splicing fitness (ln)” value (30 °C) was -0.772 ± 0.073 and the “self-splicing fitness (ln)” value (37 °C) was -1.13 ± 0.11. For CGCAAGCAAUAUUACGUUAU the same measures were -3.78 ± 0.24 and -2.44 ± 0.14. For CGCAAGCAAUAUUACGUUCC the same measures were -2.95 ± 0.15 and -1.06 ± 0.12. In the same order, the values of CGCAAGCAAUAUUACGUUUU are -4.46 ± 0.15 and -2.83 ± 0.16. With CGCCAGCAAUAUUACGAAUC, the “self-splicing fitness (ln)” value is, setting by setting: (30 °C) -2.75 ± 0.16; (37 °C) -2.92 ± 0.26. Consider CGCCAGCAAUAUUACGACAU, for which the “self-splicing fitness (ln)” value by setting is: (30 °C) -3.741 ± 0.023; (37 °C) -2.75 ± 0.038. Turning to CGCCAGCAAUAUUACGACGA, the “self-splicing fitness (ln)” value is -2.77 ± 0.15 (30 °C) and -1.48 ± 0.14 (37 °C). Consider CGCCAGCAAUAUUACGACUU, for which the “self-splicing fitness (ln)” value reads like this: (30 °C) -3.35 ± 0.2; (37 °C) -1.82 ± 0.18. For CGCCAGCAAUAUUACGAGAC the same measures were -3.23 ± 0.33 and -3.54 ± 0.46. With CGCCAGCAAUAUUACGAGAG, the “self-splicing fitness (ln)” value by setting is: (30 °C) -3.58 ± 0.13; (37 °C) -1.37 ± 0.098. In the case of CGCCAGCAAUAUUACGAGCG, the “self-splicing fitness (ln)” value by setting is: (30 °C) -2.66 ± 0.17; (37 °C) -2.56 ± 0.23.

Take CGCCAGCAAUAUUACGAGUU: the “self-splicing fitness (ln)” value reads like this: (30 °C) -3.19 ± 0.15; (37 °C) -3.16 ± 0.2.

Turning to CGCCAGCAAUAUUACGAUCC, the “self-splicing fitness (ln)” value (30 °C) is -3.12 ± 0.37. In the case of CGCCAGCAAUAUUACGAUCU, the “self-splicing fitness (ln)” value is, setting by setting: (30 °C) -2.5 ± 0.26; (37 °C) -2.42 ± 0.35.

Take CGCCAGCAAUAUUACGCCAG: the “self-splicing fitness (ln)” value reads like this: (30 °C) -0.963 ± 0.12; (37 °C) -0.172 ± 0.15.

With CGCCAGCAAUAUUACGCUAU, the “self-splicing fitness (ln)” value was -3.43 ± 0.15 (30 °C) and -3.01 ± 0.21 (37 °C). Regarding CGCCAGCAAUAUUACGGCAA, the “self-splicing fitness (ln)” value runs as follows: (30 °C) -0.604 ± 0.087; (37 °C) -0.186 ± 0.088.

Take CGCCAGCAAUAUUACGGCAC: the “self-splicing fitness (ln)” value reads like this: (30 °C) -2.37 ± 0.1; (37 °C) -1.04 ± 0.097. In the same order, the values of CGCCAGCAAUAUUACGGGGU are -3.35 ± 0.15 and -2.36 ± 0.17. Consider CGCCAGCAAUAUUACGGUAA, for which the “self-splicing fitness (ln)” value runs as follows: (30 °C) -0.8 ± 0.069; (37 °C) 0.0236 ± 0.072.

For CGCCAGCAAUAUUACGGUAU, the “self-splicing fitness (ln)” value by setting is: (30 °C) -2.65 ± 0.088; (37 °C) -0.699 ± 0.1. CGCCAGCAAUAUUACGUAGA: the “self-splicing fitness (ln)” value is, setting by setting: (30 °C) -1.25 ± 0.086; (37 °C) -1.18 ± 0.13. CGCCAGCAAUAUUACGUCAA: the “self-splicing fitness (ln)” value is, setting by setting: (30 °C) -2.51 ± 0.17; (37 °C) -2.32 ± 0.17.
